From the nanobody polyreactivity screen of Harvey et al. (2022)

Test: yeast display, Sf9 membrane polyspecificity reagent, FACS + sequencing; frameworks hold sequencing errors
Outline: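 A synthetic nanobody library was expressed on Saccharomyces cerevisiae BJ5465 by galactose induction for 36–48 hours. The library was stained for 1 hour at 4 °C with 10% biotinylated, detergent-solubilized Sf9 membrane reagent and enriched with streptavidin microbeads before FACS. Low and high (top ~1%) gates were set on anti-HA fluorescence for expression and streptavidin fluorescence for reagent binding, and each polyreactivity label reflects the gate of origin.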

Sequence: QVHLVESGGGLVQAGGSLRLSCAASGNIFYPNAMGWYRQAPGKERELVAAISSSGGSTYYADSVKGRFTISRDNAKNTVYLQMNSLKPEDTAVYYCNAYRQYRYDYWGQGTQVTVSS
- polyreactivity (PSR sort gate): low polyreactivity

Sequence: QVQLVESGGCLDQAGGSLRLSCAASGFTLHSYAMGWYRQAPGKERELVAAITTGGSTYYADSVKGRLTISRDNAKNTVYLQMNSLKPEDTAVYYCAAEDPGPYGGYVYWGQGTQVTVSS
- polyreactivity (PSR sort gate): low polyreactivity

Sequence: QVQLVESGGGLVQAGGSLRLTCAASGYTFRAYVMGWYRQAPGKERELVAGITRRGGTTYYADSVKGRFTISRYNAKNTVYLQMNSLKPEDTAVYYCNAVYRSGSIPYDSWGQGTQVTVSS
- polyreactivity (PSR sort gate): high polyreactivity

Sequence: QVQLVESGGGIVQAGGSLRLSCAASGFIISPNAMGWYRHAPGKEREFVAAIRYSGTSTSYADSVKGRFTISRDNGKNTVYLQMNSLKPEDTAVYYCAAQYRQRTGMYYWGQGSQVTVSS
- polyreactivity (PSR sort gate): high polyreactivity

Sequence: QVQLVESGGGLVQAGGSLRLSCAASGSIFLENTMGWYRQAPGKERELVAAITSSGDSTYADSVKGRFTISRDNAKNTVYLQMNSLKPEDTAVYYCAQYTRDIFAVTFYEGEDYWGQGTQVTVSS
- polyreactivity (PSR sort gate): low polyreactivity

Sequence: QVQLVESGGGLVQAGGSLRLSCAASGSTFTSYAMGWYRQAPGKERELVASITRSGGRTYYADSVKGRFTISRDNAKNTVYLQMNSLKPEDTAVYYCARRYPGGYYWGQGTQVTVSS
- polyreactivity (PSR sort gate): high polyreactivity

Sequence: QVQLVESGGGLVQAGGSLRLSCAASGFIYYAMGWYRQAPGKERELVAAISRGGTTYYADSVKGRFTISRDNAKNTVYLQMNSLKPEVTAVSYCNAVGYRAVGYKTGYARYGYWGQGTQVTVSS
- polyreactivity (PSR sort gate): high polyreactivity

Sequence: QVQLVESGGCLVQAGGSLRLSCAASGSTYKLNAMGWYRQAPGKEREMVAAISRGGRTNYADSVKGRFTISRDNAKNTVYFQMNSLNPEDTAVYYCAKDVAGLFHVGALYYYWGQGSQVTVSS
- polyreactivity (PSR sort gate): low polyreactivity

Sequence: QVQLVESGGGLVQAGGSLRLSCAASGSPFRPYVMGWSRQAPGKERELVAAISWRGGTTYYADSVKGRFTISRDNAKNTDYLQIHSLKPEDTAVYYCAARGDQGVPVARRYDYWGQGTQVTVSS
- polyreactivity (PSR sort gate): high polyreactivity

Sequence: QVQLVESGGRLVQAGGSLRLSCAASGITFYLYAMGWYRQAPGKERELVAAISSSGGSTYYADSVKGRFTISRDNEKNTVYLQMNSLKPEDTAVYYCAAVFYTSVTIYDYWGQGTQVTVSS
- polyreactivity (PSR sort gate): high polyreactivity

Sequence: QVQLVESGGGFVQAGGSLRLSCAASGSTFGPYAMGWSSQAPGKDRELVAGISSGGSTYYADSVKGRFTISRDNAKNTVYLQMNSLKPEDTAVYYCATRYLYRGYSYFAYDYWGQGTQVTVSS
- polyreactivity (PSR sort gate): low polyreactivity

Sequence: QVQLVESGGGLVQAGGSLRLSCAASGGIFYLYAMGWYRQAPGKERELVASINWRSASTYYADSVKGRFTISRDNAKNTVYFQMNSLKPEDTAVYYCNVQWYGGYDYWGQGTQVTVSS
- polyreactivity (PSR sort gate): low polyreactivity

Sequence: QVQLVESGGGIVQAGGSLRLSCAASGRIFVRNAMGWYRQARGKERELVAAISWSGGTNYADSVKGSFTISRDNAKNTVYLQMNILKPEDTAVYYCAALSVWSYYTYYYWGQGTQVTVSS
- polyreactivity (PSR sort gate): high polyreactivity

Sequence: QVQLVESGGGLLQAGGSLRLSCAASGSIFSYYVMGWYRQAPGKERELVAAISSSGGSTYYADSVKGRFTISRDNEKNTVYLQMNSLKPEDTAVYYCAAQHYVRSSIPGFIYYYWGQGTQVTVSS
- polyreactivity (PSR sort gate): high polyreactivity

Sequence: QVHLVESGGGLVQAGGSLRLSCAASGRIMVHNAMGWYRQAPGKERELVAVITARGASTYYADSVKGRFTISRDNAKNTVYLQMNSLKPEDTAVYYCATDKRPKYYNQYDYWGQGTQVTVSS
- polyreactivity (PSR sort gate): low polyreactivity

Sequence: QVQLVESGGGLVQAGGSLRLSCAASGSIFSFYAMGWYRQAPGKERELVAAITSDGSTDYADSVKGRFTISRDNAKNTVYLQMNSLKPEDTAVYYCAADYIVRVVSRYRYGYEYWGQGTQVTVSL
- polyreactivity (PSR sort gate): low polyreactivity

Sequence: QVQLVESGGGLVQAGGSLRLSCAASGYIFRSYAMGWYRQAPGKERELVAAITRSGGSTYYADSVKGRFTISRDNAKNTVYLQMNSLKPEDTAVYYCAVLPRGSNGMDYWGQGTQVTVSS
- polyreactivity (PSR sort gate): low polyreactivity
